Results: patent US20110262454A1 (published 2011)
Positions count from the first letter of the chain named.

How the values were obtained:
human CD38 on cells [1] = molecular target: T1, human CD38 on cells (human, UniProt P28907 1-300); experiment: cell-based or functional assay
human CD38 on cells [2] = molecular target: T1, human CD38 on cells; experiment: FACS binding titration on Ramos cells
human CD38 on cells [3] = molecular target: T1, human CD38 on cells; experiment: FACS binding on Ramos cells
human CD38 on cells [4] = molecular target: T1, human CD38 on cells; experiment: apparent KD, FACS titration on Ramos cells, non-linear regression

B1: ch38SB13 chimeric anti-CD38 antibody (antibody, V domains shown)
VH: QIQLVQSGPELKKPGETVKISCKASGYTLTSYGMNWVKQAPGKGLKWMGWINTYTGEPTYADDFKGRFAFSLETSASTAFLQINNLKNEDTATYFCVRRGFAYWGQGTLVTVSA
VL: NIVLTQSPASLAVSLGQRATISCRASESVEIYGNGFMNWFQQKPGQPPKLLIYRASNLESGIPARFSGSGSRTEFTLTIDPVEADDVATYYCQQINEDPFTFGSGTKLEIKR
- ADCC EC50, Ramos target cells, human NK effector cells, LDH release (human CD38 on cells [1]): 1.3 ng/mL
- CDC EC50, Raji-IMG cells, human complement 5% (human CD38 on cells [1]): 5 ng/mL
- CDC, specific viability of Daudi cells at 1.25 µg/mL or higher with complement (human CD38 on cells [1]): 65%

B2: ch38SB18 chimeric anti-CD38 antibody (antibody, V domains shown)
VH: B1 VH with L29F, S31N, Y32S, T78S, F80Y, N84S, V97A, A102V
VL: B1 VL with N1D, E30A, G35S, M37L, N38K, R72G, E74D, D80N, F100Y, S104G
- ADCC EC50, LP-1 multiple myeloma cells (human CD38 on cells [1]): 0.56 ng/mL
- ADCC EC50, Ramos target cells, human NK effector cells, LDH release (human CD38 on cells [1]): 1.3 ng/mL
- CDC EC50, LP-1 multiple myeloma cells (human CD38 on cells [1]): 32 ng/mL
- CDC EC50, Raji-IMG cells, human complement 5% (human CD38 on cells [1]): 10.1 ng/mL
- CDC, specific viability of Daudi cells at 1.25 µg/mL or higher with complement (human CD38 on cells [1]): 85%

B3: ch38SB19 chimeric anti-CD38 antibody (antibody, V domains shown)
VH: QVQLQQSGAELARPGTSVKLSCKASGYTFTDYWMQWVKQRPGQGLEWIGTIYPGDGDTGYAQKFKGKATLTADKSSKTVYMHLSSLASEDSAVYYCARGDYYGSNSLDYWGQGTSVTVSS
VL: DIVMAQSHKFMSTSVGDRVSITCKASQDVSTVVAWYQQKPGQSPKRLIYSASYRYIGVPDRFTGSGSGTDFTFTISSVQAEDLAVYYCQQHYSPPYTFGGGTKLEIKR
notes: also called chimeric 38SB19
- ADCC EC50, LP-1 multiple myeloma cells (human CD38 on cells [1]): 0.34 ng/mL
- ADCC EC50, Ramos target cells, human NK effector cells, LDH release (human CD38 on cells [1]): 1.8 ng/mL
- CDC EC50, LP-1 multiple myeloma cells (human CD38 on cells [1]): 30 ng/mL
- CDC EC50, Raji-IMG cells, human complement 5% (human CD38 on cells [1]): 28 ng/mL
- Kd (human CD38 on cells [2]): 0.18 nM

B4: ch38SB30 chimeric anti-CD38 antibody (antibody, V domains shown)
VH: QVQLQQSGPELVRPGASVKISCKTSGYAFSGSWMNWVKQRPGQGLEWIGRIYPGDGDIIYNGNFRDKVTLSADKSSNTAYMQLSSLTSVDSAVYFCSRWGTFTPSFDYWGQGTTLTVSS
VL: DIVMTQSHKFLSTSVGDRVSITCKASQDVVTAVAWFQQKPGQSPKLLIYSASHRYTGVPDRFTGSGSGTDFTFTIISVQAEDLAVYYCQQHYTTPTTFGGGTKLDFRR
- ADCC EC50, Ramos target cells, human NK effector cells, LDH release (human CD38 on cells [1]): 2.2 ng/mL
- CDC EC50, Raji-IMG cells, human complement 5% (human CD38 on cells [1]): 20 ng/mL
- CDC, specific viability of Daudi cells at 1.25 µg/mL or higher with complement (human CD38 on cells [1]): 45%

B5: ch38SB31 chimeric anti-CD38 antibody (antibody, V domains shown)
VH: DVKLVESGGGLVKPGGSLKLSCEASGFTFSSYTLSWVRQTPETRLEWVATISIGGRYTYYPDSVEGRFTISRDNAKNTLYLQMNSLKSEDTAMYYCTRDFNGYSDFWGQGTTLTVSS
VL: DTVMTQSHKFISTSVGDRVSITCKASQVVGSAVAWYQQKPGQSPKLLIYWASTRHTGVPDRFTGSGSGTDFTLTISNVQSEDLADYFCQQYNSYPYTFGGGTKLEIKR
notes: also called chimeric 38SB31
- ADCC EC50, LP-1 multiple myeloma cells (human CD38 on cells [1]): 0.24 ng/mL
- ADCC EC50, Ramos target cells, human NK effector cells, LDH release (human CD38 on cells [1]): 1.2 ng/mL
- CDC EC50, LP-1 multiple myeloma cells (human CD38 on cells [1]): 43 ng/mL
- CDC EC50, Raji-IMG cells, human complement 5% (human CD38 on cells [1]): 10 ng/mL
- CDC, specific viability of Daudi cells at 1.25 µg/mL or higher with complement (human CD38 on cells [1]): 53%
- Kd (human CD38 on cells [3]): 0.12 nM

B6: ch38SB39 chimeric anti-CD38 antibody (antibody, V domains shown)
VH: NVQLVESGGGLVQPGGSRKLSCAASGFTFSNFGMHWVRQAPEKGLEWVAYIRSGSGTIYYSDTVKGRFTISRDNPKNTLFLQMTSLRSEDTAMYYCARSYYDFGAWFAYWGQGTLVTVSA
VL: DIVMTQSQKFMSTSVGDRVSVTCKASQNVGTNVAWYQHKPGQSPKIMIYSASSRYSGVPDRFTGSGSGTLFTLTINNVQSEDLAEYFCQQYNSYPLTFGSGTKLEIKR
- ADCC EC50, Ramos target cells, human NK effector cells, LDH release (human CD38 on cells [1]): 113 ng/mL
- CDC EC50, Raji-IMG cells, human complement 5% (human CD38 on cells [1]): 400 ng/mL
- CDC, specific viability of Daudi cells at 1.25 µg/mL or higher with complement (human CD38 on cells [1]): 91%

B7: 38SB13 murine anti-CD38 monoclonal antibody (antibody, V domains shown)
VH: B1 VH
VL: B1 VL
notes: Murine hybridoma antibody purified by Protein A or G; also called hybridoma PTA-7667
- apoptosis, Annexin V-positive Daudi cells after 24 h with 10 nM antibody (human CD38 on cells [1]): > 30%
- apoptosis, Annexin V-positive MOLP-8 cells (human CD38 on cells [1]): ~50%
- apoptosis, Annexin V-positive Ramos cells after subtraction of the non-treated control (human CD38 on cells [1]): ≥ 7%
- Kd (human CD38 on cells [4]): 0.1 nM

B8: 38SB18 murine anti-CD38 monoclonal antibody (antibody, V domains shown)
VH: B1 VH with L29F, S31N, Y32S, T78S, F80Y, N84S, V97A, A102V
VL: B1 VL with N1D, E30A, G35S, M37L, N38K, R72G, E74D, D80N, F100Y, S104G
notes: Murine hybridoma antibody; also called hybridoma PTA-7669
- apoptosis, Annexin V-positive Daudi cells after 24 h with 10 nM antibody (human CD38 on cells [1]): > 30%
- apoptosis, Annexin V-positive MOLP-8 cells (human CD38 on cells [1]): ~50%
- apoptosis, Annexin V-positive Ramos cells after subtraction of the non-treated control (human CD38 on cells [1]): ≥ 7%
- Kd (human CD38 on cells [4]): 0.1 nM

B9: 38SB19 murine anti-CD38 monoclonal antibody (antibody, V domains shown)
VH: B3 VH
VL: B3 VL
notes: also called mu38SB19; murine 38SB19
- apoptosis, Annexin V-positive Daudi cells after 24 h with 10 nM antibody (human CD38 on cells [1]): > 30%
- apoptosis, Annexin V-positive MOLP-8 cells (human CD38 on cells [1]): ~50%
- apoptosis, Annexin V-positive Ramos cells after subtraction of the non-treated control (human CD38 on cells [1]): ≥ 7%
- Kd (human CD38 on cells [4]): 0.12 nM

B10: 38SB30 murine anti-CD38 monoclonal antibody (antibody, V domains shown)
VH: B4 VH
VL: B4 VL
notes: Murine hybridoma antibody; also called hybridoma PTA-7666
- apoptosis, Annexin V-positive Daudi cells after 24 h with 10 nM antibody (human CD38 on cells [1]): > 30%
- apoptosis, Annexin V-positive MOLP-8 cells (human CD38 on cells [1]): ~50%
- apoptosis, Annexin V-positive Ramos cells after subtraction of the non-treated control (human CD38 on cells [1]): ≥ 7%
- Kd (human CD38 on cells [4]): 0.16 nM

B11: 38SB31 murine anti-CD38 monoclonal antibody (antibody, V domains shown)
VH: B5 VH
VL: B5 VL
notes: Murine hybridoma antibody; also called hybridoma PTA-7668
- apoptosis, Annexin V-positive Daudi cells after 24 h with 10 nM antibody (human CD38 on cells [1]): > 30%
- apoptosis, Annexin V-positive MOLP-8 cells (human CD38 on cells [1]): ~50%
- apoptosis, Annexin V-positive Ramos cells after subtraction of the non-treated control (human CD38 on cells [1]): ≥ 7%
- Kd (human CD38 on cells [4]): 0.11 nM

B12: 38SB39 murine anti-CD38 monoclonal antibody (antibody, V domains shown)
VH: B6 VH
VL: B6 VL
notes: Murine hybridoma antibody; also called hybridoma PTA-7671
- apoptosis, Annexin V-positive Daudi cells after 24 h with 10 nM antibody (human CD38 on cells [1]): > 30%
- apoptosis, Annexin V-positive MOLP-8 cells (human CD38 on cells [1]): ~50%
- apoptosis, Annexin V-positive Ramos cells after subtraction of the non-treated control (human CD38 on cells [1]): ≥ 7%
- Kd (human CD38 on cells [4]): 3.03 nM

B13: hu38SB31 v1.1 humanized anti-CD38 antibody (antibody, V domains shown)
VH: B5 VH with D1E, K3Q, K19R, E42G, T43K, R44G, E65K
VL: B5 VL with H8P, K9S, F10T, E81D
- Kd (human CD38 on cells [3]): 0.13 nM

B14: hu38SB31 v1.2 humanized anti-CD38 antibody (antibody, V domains shown)
VH: B5 VH with D1E, K3Q, K19R, E42G, T43K, R44G, E65K
VL: B5 VL with H8P, K9S, F10S, V15I, D60A
- Kd (human CD38 on cells [3]): 0.11 nM
